Measured values from the domain aggregation screens of Martell et al. (2025).

test: soluble fraction after stress (log2 fold change); higher = more stays soluble; pooled small domains, quantitative proteomics; conditions: stress: pH 4
In short: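 Following acid stress at pH 4, the amount of each small protein domain still soluble was measured in pooled custom libraries by high-throughput quantitative proteomics. Its fold change, on a log2 scale, is higher when more of the domain stayed soluble. This fold change is taken as a measure of aggregation propensity.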

Going from “HMQRIFIDNHDRILYYSNPAGYIAGKEAVVDTMFQTQELERFLQKQSLSIRWEDGVYDRLLLGQ” to “HMQRRHESTPIPADFDYAAVRGLSAEVQQKLERVRPLSIGQAQRIPGMTPAAISLLLVHLERQRRSRV”, the “soluble fraction (log2)” value rises from -0.725 to 0.00221.

First: HMQRSVKNNDTVQVHYTGKLTNGQIFDSSIDKQPLEFQLGQGQIIPGFEKGLIDMTVSEKKTITIPEAEAY
Second: HMQSAEMTLDREGQPVQVRVELTGNEARITFLSDQEQTREALDAGMAQLRELLEQQGMVLAGVTV
The “soluble fraction (log2)” value of the first is higher: 0.133 for the first, -0.491 for the second.

First: HMQSDQLSDREREILRLIGSGRTNQEISQELQVSGSTVRTHLQHILDKLGLENRNQAVLYAIRIGLAAPP
Second: HMQSHGSRIWTDITGNFTREASFIELAEGKVTLQLTDGRRTIISFEILSKKDQEYVLDIGDS
The “soluble fraction (log2)” value of the first is higher: -0.372 for the first, -1.95 for the second.

First: HMQSKDDLLDTFRVVKGNAALLNDQNKKLIRSLKVSSFGFTGITDQAAEVKKEMPDVLLEKASIEDILF
Second: HMQSLAAKINGYIVAQRTSIAAIAKEIGYSRVTVSRYLAGKYDSDPTGIEAKLAAFLAGQTGEE
The “soluble fraction (log2)” value of the first is lower: -0.595 for the first, 0.114 for the second.

Compared with “HMQSNIHELQKKLNEALQALSEDHRAVVTMFDIQGMPHAEISKILGVSEGTVRSRLYYAHQQLQGHL”, “HMQSRYALLAGMLRARITEGDWVPGSAIPAETVLAKEHGVALGTMRQAIALLVSQGLLERQHGRGTFVRS” is higher in “soluble fraction (log2)” value: -0.663 for the first, -0.0211 for the second.

Going from “HMQSSDQTDNIYENAVSIVLETGKASASHLQRVLGIDYNLAAHLIDKMEDGGLLSPPNYLGHRDVYGYT” to “HMQTFNADDIEPIIKEILQENPKAISDFLTGNENVVKFLLGQVMKNTKGKANPKVIEELLINQLRELNN”, the “soluble fraction (log2)” value rises from -1.06 to -0.663.

Going from “HMQTGYHVRITASTLNVRRDHSASSAVATQVRRGEVYTIVDEYNNGGTLWGKLKSGAGWIALKYTQS” to “HMQTTITITNTVTGQKAQFPPPFNPMSLSKIGVDETFEKEVFVDGVDTFGYGLDGYLTFYELKDFLRSYQ”, the “soluble fraction (log2)” value falls from at least 0.43 to -2.

First: HMQVEYTRGELLQDLKEENVLYATITPSRETPTGEVDFVFKDKSIKTLYVTDVSEIEGLLMDYGIDPEVKK
Second: HMQVITEPFQEKYREFINMSTVTQRLEERETLSFTAQTVEGRWLTIIIVPQGYDKTGKLSTVLVANR
The “soluble fraction (log2)” value of the first is lower: -0.367 for the first, 0.111 for the second.

“HMQVSDEGAIQLLVQKAIEENPQAIEAFRGGKTSALGPVVGWVMKQSKGAANPTMVKTLLEKAI” and “HMQVVVEKSKEKVIISGNQYYIHIVKKGETAFSIAKAYGITVDELVKNNPSAATVLKEGQALRIPVVE” are within 0.2 log units of each other in “soluble fraction (log2)” value: 0.378 for the first, 0.22 for the second.

“HMQYDESSQLGERFLNQALNALKADPDKVGDAQWEKLLKENSAKSRQEVLADIGLGKQLAIVIARELLS” and “HMQYPSSLDSRAKQSLYDNLERNEILALALDNVIQSNKLDGWRDGGIKERKLRLAINNLLKNDEHTDNIME” are within 0.2 log units of each other in “soluble fraction (log2)” value: -0.37 for the first, -0.284 for the second.

“HMQYQIITENGKQYYLYTVQKSEGFYSIGKRFEITNDEIIKANPEAALGLKLGQVLKIPVYK” and “HMRAAKSEDTRTRLIEGGMALFGQKGYNATGIKDITDAAGVPKGSFYNYFASKEDFGAEIIHSY” are within 0.2 log units of each other in “soluble fraction (log2)” value: -0.131 for the first, -0.0559 for the second.

Compared with “HMRAEELEQFVERLKNEVMNNFPLKELSDNELREKIENLVEIRLANVYVSIEQRVAIAEQIYSSIR”, “HMRAERVQITDPYIELHTGPGRGFPIFFVAPREQWISIELRHTDWFKVRAVGGQVGWVQRKQLEST” is higher in “soluble fraction (log2)” value: -0.633 for the first, -0.295 for the second.

Compared with “HMRAGHDFEALKHIESSLDKHLTDEGIKIKSEKRGAIVARWYQSHVEGREVTDDDVHTWIELFF”, “HMRAPIGFRISNRRKSLKISQVALARLVGISPSYLNLIENNKRDVGGALLQRVALHLNIDIDDL” is higher in “soluble fraction (log2)” value: -2.2 for the first, -0.219 for the second.

“HMRARTLSTTGGESLLTLAESLYPDDDRARARFIEATAAANPKLFADIAALTRVLPAGTTLRMPDLRA” and “HMRARTQYWPFVEEKAAELKLPLHLVNVEPLFGEQKVVVHYTANGRIDFRELVHLLARRFHARIEMR” are within 0.2 log units of each other in “soluble fraction (log2)” value: 0.129 for the first, 0.0493 for the second.

Going from “HMRATLTDETARVVQEPTSESISLTSLRKGEEFEIGKVIRKKKEVWVTVTTSSGVKGYISGDTHIF” to “HMRAVFEQLRIGQTLAGVVKAQEKGFSLVEIDGQTVAMRLPHPAAVGDTLRLRFAGHMPQAVFLLES”, the “soluble fraction (log2)” value falls from at least 0.43 to -0.178.

First: HMRAVPSIAFVTQKLIEQGVTMEQLVRSLLLDHEEYENDDSLERTADELFGKARMIISNYTPE
Second: HMRDADRYAFMQENVEDFAKDMRRKHMTYDVLYEEYIRRTDNPYGYTQFKAIVQEYEKNHDYK
The “soluble fraction (log2)” value of the first is lower: -1.04 for the first, 0.253 for the second.

First: HMRDGYEKPTEVGEGGRNPAMLSYIGHLRAKGHLSEEDIRSMAHGFNATTFDPPLDRDEVDGLVSRY
Second: HMRDITAQSNASELYFEERDLEAFIEKLERLYPEIRYVNRLMIHSWGQQVVRFFDPDGNLIEVGTP
The “soluble fraction (log2)” value of the first is higher: at least 0.43 for the first, -1.28 for the second.

Going from “HMRDKTMLGNVIRTRRKKMNLTLEELSKQVGITSGGLSQIERGLVDPSLSVLRRISRALNLPMNVMFSE” to “HMRDLAEAETILDALPTRLRKIVRWRHLEGLSQTEIAARLEISQMHVSRLYRRAISMIHASLADD”, the “soluble fraction (log2)” value falls from at least 0.43 to -0.843.

Going from “HMREEQELFRKLLEVNGIGPKVAAGMLAGGRPEDVVSAIRREDVAWLTKLPGIGRKTAQRIVLDLKDKLD” to “HMREPQMVTVNGDKVTHGHAYRSNVNPEDWYFTARINGQQLKPQKMEPADVAAYDKKEIGVPELMQR”, the “soluble fraction (log2)” value falls from 0.165 to -0.0539.
